Data set [1] has as its system LPS-induced TNFα release. Nature of the data set: LPS-induced TNFalpha release in mice (Example 5). The data set is classed as in vivo, C3H mice. On the procedure:
C3H mice (Elevage Janvier) (8 week old), received E. Coli's LPS (O111:B4, Sigma, 0.3 mg/kg, ip) 15 minutes after the administration of the test molecules. LPS was solubilized in sterile saline. Dexamethasone (0.1 mg/kg, sc) was used as reference. 24 h later, the animals were sacrificed and the blood was sampled. Plasma levels of TNF-αwere determined in serum using an ELISA kit (R&D). Statistical analysis was determined with an ANOVA test followed by a post-test of Dunnett.

Data set [2] relates to female mice (Balb/c). Nature of the data set: Dextran Sodium Sulfate-induced ulcerative colitis model. The data set is classed as in vivo. The protocol:
The DSS model of colitis mimics some aspects of the human affection such as macrophage infiltration and up regulation of inflammatory cytokines (i.e. TNFα, IL-1p, IL-6) in the colon mucosa.
Ulcerative colitis (UC) was induced in female mice (Balb/c, 20-22 g, Elevage Janvier) by Dextran Sodium Sulfate (DSS 4%) administered in drinking water (oral route). The mice had free access to DSS during 7 days. Body weight was determined daily. The severity of the UC was assessed by a clinical score estimating the constituency of the stool (0=firm, 1=loose, 2=diarrhea) and the presence of blood (0=no blood, 1=occult blood, 2=gross rectal bleeding). Seven days after the induction of the disease, the animals were sacrificed. The length and the weight of the colon were determined and the ratio Weight/Length/100 g body weight was calculated. The spleen weight was also determined. Blood was sampled to determine serum amyloid protein (SAA) using a specific ELISA.
Test substances or vehicle (PBS/0.02% BSA) was administered at days 3, 4, 5 and 6 after the induction of the UC. Enbrel® (1 mg/kg, sc) was used as reference compound. Three studies were performed as per the following table:
In Study 3, the content of IL-1β in the colon was also measured.

B1: sCD164: SEQ ID NO: 15, mature full-length CD164 extracellular domain (exons 1 to 6), expressed with C-terminal hexa-histidine tag (protein)
chain: DKNTTQHPNVTTLAPISNVTSAPVTSLPLVTTPAPETCEGRNSCVSCFNVSVVNTTCFWIECKDESYCSHNSTVSDCQVGNTTDFCSVSTATPVPTANSTAKPTVQPSPSTTSKTVTTSGTTNNTVTPTSQPVRKSTFDA
modifications: homo sapiens
Take B1: the “LPS-induced TNFα release” value in data set [1] (1 mg/kg iv, 15 minutes prior to LPS, P<0.001) was “significantly decrease”. Besides, in data set [1] (previous experiments in this model), the “TNFα release after LPS induction” value is “decrease TNFα release”.

B2: sCD164-Fcm: SEQ ID NO: 18, sCD164 fused to an Fc part mutated in the Fc receptor and C1q binding regions (protein, listed as Homo sapiens)
chain: DKNTTQHPNVTTLAPISNVTSAPVTSLPLVTTPAPETCEGRNSCVSCFNVSVVNTTCFWIECKDESYCSHNSTVSDCQVGNTTDFCSVSTATPVPTANSTAKPTVQPSPSTTSKTVTTSGTTNNTVTPTSQPVRKSTFDAEPKSCDKTHTCPPCPAPEAEGAPSVFLFPPKPKDTLMISRTPEVTCVVVDVSHEDPEVKFNWYVDGVEVHNAKTKPREEQYNSTYRVVSVLTVLHQDWLNGKEYKCKVSNKALPSSIEKTISKAKGQPREPQVYTLPPSREEMTKNQVSLTCLVKGFYPSDIAVEWESNGQPENNYKTTPPVLDSDGSFFLYSKLTVDKSRWQQGNVFSCSVMHEALHNHYTQKSLSLSPGK
As to B2, the clinical score was −23% in data set [2] (Study 1, 1 mg/kg, ip, day 6); −32% in data set [2] (Study 1, 3 mg/kg, ip, day 6); −22% in data set [2] (Study 2, 1 mg/kg, sc, day 6); “tended to improve” in data set [2] (Study 3, 1 mg/kg, sc); “trended to improve” in data set [2] (Study 3, 0.3 and 1 mg/kg, sc). Moreover, the “increase in serum amyloid protein A” value in data set [2] (Study 1, 3 mg/kg, ip) was −36%; in data set [2] (Study 2, 3 mg/kg, sc), “significantly decreased”. Moreover, the splenomegaly is given as −27% in data set [2] (Study 1, 3 mg/kg, ip); “not improved” in data set [2] (Study 2, 0.3, 1, 3 mg/kg sc); “trended to improve” in data set [2] (Study 3, 0.3 and 1 mg/kg, sc). For the same molecule, the “colon reduction, length” value is −21% in data set [2] (Study 1, 3 mg/kg, ip, days 3-6); −13% in data set [2] (Study 2, 0.3 mg/kg, sc); −18% in data set [2] (Study 2, 1 mg/kg, sc); −18% in data set [2] (Study 3, 0.3 mg/kg, sc); −26% in data set [2] (Study 3, 1 mg/kg, sc). Moreover, the body weight loss entry is on record as “not affected” in data set [2] (Study 1, 0.3, 1, 3 mg/kg ip); “reduced significantly” in data set [2] (Study 2, 1 mg/kg, sc, day 5 to day 7); “did not have any effect” in data set [2] (Study 3, 1 mg/kg, sc); “did not have any effect” in data set [2] (Study 3, 0.3 and 1 mg/kg, sc). Besides, the “ratio weight/length (colon)” value in data set [2] (Study 1, 0.3, 1, 3 mg/kg ip) was “not affected”. In addition, the “colon reduction, ratio weight/length” value in data set [2] (Study 2, 0.3 mg/kg, sc) was −26%; in data set [2] (Study 2, 1 mg/kg, sc) it was −46%; in data set [2] (Study 3, 0.3 mg/kg, sc), −19%; in data set [2] (Study 3, 1 mg/kg, sc) it was −25%. The “content of IL-1β in colon” value in data set [2] (Study 3, 1 mg/kg, sc) was “tended to improve”; in data set [2] (Study 3, 0.3 and 1 mg/kg, sc (dose of the single value not stated)), −22%. The “serum amyloid A protein” value in data set [2] (Study 3, 1 mg/kg, sc) is reported as “did not have any effect”; in data set [2] (Study 3, 0.3 and 1 mg/kg, sc), “did not have any effect”.

For the origin of these results see patent publication US7803910B2, “Soluble CD164 polypeptides” (Merck Serono S.A., priority 2005, dated 2010).
